This note sets out measurements from PMC12781075, “Crosstalk between arachidonic acid metabolism and glycolysis drives integrated metabolic-inflammatory reprogramming in macrophages” (International Journal of Biological Sciences, 2026).

Values joined by “and” are separate entries in the source; they are usually repeats but may differ in a detail not shown here. Equal entries are not always repeated.

In this test the target is pyruvate kinase M2 (mouse (endogenous in RAW264.7)) (UniProt P52480). The experiment in a line: cross-linking; RAW264.7 macrophages treated with 15KPF, lysed, lysate incubated with 2.5 mM disuccinimidyl suberate for 30 min; 10% SDS-PAGE and PKM2 immunoblot. (A western blot detects proteins with antibodies after separation by electrophoresis.)

pyruvate kinase M2, P52480 1-531 (enzyme; other documents disagree on this pair), sequence (P52480 whole entry): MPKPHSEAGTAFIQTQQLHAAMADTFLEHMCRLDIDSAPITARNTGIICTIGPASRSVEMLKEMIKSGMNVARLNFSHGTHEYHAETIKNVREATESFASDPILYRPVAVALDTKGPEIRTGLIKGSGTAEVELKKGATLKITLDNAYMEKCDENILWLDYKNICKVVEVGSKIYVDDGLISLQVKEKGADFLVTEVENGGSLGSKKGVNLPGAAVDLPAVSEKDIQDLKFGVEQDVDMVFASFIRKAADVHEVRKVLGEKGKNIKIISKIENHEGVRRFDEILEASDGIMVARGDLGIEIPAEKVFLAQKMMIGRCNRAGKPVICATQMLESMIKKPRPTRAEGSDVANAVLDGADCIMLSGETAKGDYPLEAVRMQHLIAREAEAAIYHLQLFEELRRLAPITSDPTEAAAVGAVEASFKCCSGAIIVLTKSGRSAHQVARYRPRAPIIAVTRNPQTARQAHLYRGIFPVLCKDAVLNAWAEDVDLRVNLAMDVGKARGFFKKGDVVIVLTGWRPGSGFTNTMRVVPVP

Regarding “pyruvate kinase M2, P52480 1-531 (enzyme; other documents disagree on this pair)”, the stoichiometry N (in general, the number of molecules, sites or subunits per partner or assembly) is 4 and 2.
